Like-named read-outs stand apart in the source and are kept apart here. Square brackets hold non-standard residues; d marks the D form. Peptide text beside a SMILES is read from it. * marks the point of attachment. Succinimide(1-Et,3-yl) = CCN1C(=O)CC(*)C1=O; Cbz = O=C(OCc1ccccc1)*
Experiments:
[1] = target: viral glycoproteins (H and F); Nectin-4 (Measles virus, UniProt Q786F3); experiment: beta-galactosidase complementation-based fusion assay, Nectin-4 target cells
[2] = target: viral glycoproteins (H and F); CD150; experiment: beta-galactosidase complementation-based fusion assay, CD150 target cells; details: for IC90: read-out: CD150 IC90
[3] = target: measles virus (MeV) fusion protein F, wild type, expressed on cells (measles virus) (UniProt Q786F3); experiment: cell-based or functional assay

Molecule | IC90 ([1]; read-out: Nectin4 IC90) [µM] | IC50, beta-galactosidase complementation-based fusion assay, Nectin-4 target cells [3] [µM] | IC90, beta-galactosidase complementation-based fusion assay, Nectin-4 target cells [3] [µM] | also measured
CC[C@H](C)[C@H](NC(=O)[C@H](C)NC(=O)[C@H](CC(N)=O)NC(=O)CNC(=O)[C@H](CC(C)C)NC(=O)[C@H](CC(N)=O)NC(=O)[C@@H](NC(=O)CNC(=O)[C@@H](NC(=O)[C@H](CC(=O)O)NC(=O)[C@H](CC(C)C)NC(=O)[C@H](CCCNC(=N)N)NC(=O)[C@H](CCC(=O)O)NC(=O)[C@H](CC(C)C)NC(=O)[C@H](CO)NC(=O)[C@@H](NC(=O)[C@@H]1CCCN1C(=O)[C@@H]1CCCN1C(=O)CNC(=O)[C@H](CO)NC(=O)CNC(=O)[C@H](CO)NC(=O)CNC(=O)CNC(=O)[C@H](Cc1ccccc1)NC(=O)[C@@H](Cc1ccccc1)NC(=O)OCc1ccccc1)[C@@H](C)CC)C(C)C)[C@@H](C)O)C(=O)N[C@@H](C)C(=O)N[C@@H](CCCCN)C(=O)N[C@@H](CC(C)C)C(=O)N[C@@H](CCC(=O)O)C(=O)N[C@@H](CC(=O)O)C(=O)N[C@@H](C)C(=O)N[C@@H](CCCCN)C(=O)N[C@@H](CCC(=O)O)C(=O)N[C@@H](CC(C)C)C(=O)N[C@@H](CC(C)C)C(=O)N[C@@H](CCC(=O)O)C(=O)N[C@@H](CO)C(=O)N[C@@H](CO)C(=O)N[C@@H](CC(=O)O)C(=O)N[C@@H](CCC(N)=O)C(=O)N[C@H](C(=O)N[C@@H](CC(C)C)C(=O)N[C@@H](CCCNC(=N)N)C(=O)N[C@@H](CSC1CC(=O)N(CCCC(=O)NCCOCCOCCOCCOCCC(=O)NCCN(CCNC(=O)CCOCCOCCOCCOCCNC(=O)CCCN2C(=O)CC(SC[C@H](NC(=O)[C@H](CCCNC(=N)N)NC(=O)[C@H](CC(C)C)NC(=O)[C@@H](NC(=O)[C@H](CCC(N)=O)NC(=O)[C@H](CC(=O)O)NC(=O)[C@H](CO)NC(=O)[C@H](CO)NC(=O)[C@H](CCC(=O)O)NC(=O)[C@H](CC(C)C)NC(=O)[C@H](CC(C)C)NC(=O)[C@H](CCC(=O)O)NC(=O)[C@H](CCCCN)NC(=O)[C@H](C)NC(=O)[C@H](CC(=O)O)NC(=O)[C@H](CCC(=O)O)NC(=O)[C@H](CC(C)C)NC(=O)[C@H](CCCCN)NC(=O)[C@H](C)NC(=O)[C@@H](NC(=O)[C@H](C)NC(=O)[C@H](CC(N)=O)NC(=O)CNC(=O)[C@H](CC(C)C)NC(=O)[C@H](CC(N)=O)NC(=O)[C@@H](NC(=O)CNC(=O)[C@@H](NC(=O)[C@H](CC(=O)O)NC(=O)[C@H](CC(C)C)NC(=O)[C@H](CCCNC(=N)N)NC(=O)[C@H](CCC(=O)O)NC(=O)[C@H](CC(C)C)NC(=O)[C@H](CO)NC(=O)[C@@H](NC(=O)[C@@H]3CCCN3C(=O)[C@@H]3CCCN3C(=O)CNC(=O)[C@H](CO)NC(=O)CNC(=O)[C@H](CO)NC(=O)CNC(=O)CNC(=O)[C@H](Cc3ccccc3)NC(=O)[C@@H](Cc3ccccc3)NC(=O)OCc3ccccc3)[C@@H](C)CC)C(C)C)[C@@H](C)O)[C@@H](C)CC)[C@@H](C)CC)C(=O)O)C2=O)CCO[C@H]2CC[C@@]3(C)C(=CC[C@H]4[C@@H]5CC[C@H]([C@H](C)CCCC(C)C)[C@@]5(C)CC[C@@H]43)C2)C1=O)C(=O)O)[C@@H](C)CC (stereo partly shown) | 0.22 ± 0.189 |  |  | IC50 [1]: 0.0602 ± 0.0655 µM; IC50 [2]: 0.0589 ± 0.0698 µM; IC90 [2]: 0.287 ± 0.0245 µM
CC(C)CCC[C@@H](C)[C@H]1CC[C@H]2[C@@H]3CC=C4C[C@@H](OC(=O)CSC[C@H](NC(=O)CNC(=O)[C@H](Cc5ccccc5)NC(=O)[C@@H](Cc5ccccc5)NC(=O)OCc5ccccc5)C(=O)O)CC[C@]4(C)[C@H]3CC[C@]12C [FIP-chol (no GSGSG)] | > 1 |  |  | IC50 ([1]; Nectin4 IC50, Table 3 (extended version)): > 1 µM; IC50 [2]: > 1 µM; IC90 [2]: > 1 µM
CC(C)CCC[C@@H](C)[C@H]1CC[C@H]2[C@@H]3CC=C4C[C@@H](OC(=O)CCOCCOCCOCCOCCNC(=O)CSC[C@H](NC(=O)CNC(=O)[C@H](Cc5ccccc5)NC(=O)[C@@H](Cc5ccccc5)NC(=O)OCc5ccccc5)C(=O)O)CC[C@]4(C)[C@H]3CC[C@]12C [FIP-peg4-chol (no GSGSG)] | > 1 |  |  | IC90 [2]: > 0.9 µM
CCN1C(=O)CC(SC[C@H](NC(=O)CNC(=O)[C@H](Cc2ccccc2)NC(=O)[C@@H](Cc2ccccc2)NC(=O)OCc2ccccc2)C(=O)O)C1=O (stereo partly shown) [Monomer N-Maleimide FIP (no GSGSG)] (Cbz-[dF]FGC(Succinimide(1-Et,3-yl))-OH) | > 1 |  |  | IC90 [2]: > 1 µM
CC[C@H](C)[C@H](NC(=O)[C@H](C)NC(=O)[C@H](CC(N)=O)NC(=O)CNC(=O)[C@H](CC(C)C)NC(=O)[C@H](CC(N)=O)NC(=O)[C@@H](NC(=O)CNC(=O)[C@@H](NC(=O)[C@H](CC(=O)O)NC(=O)[C@H](CC(C)C)NC(=O)[C@H](CCCNC(=N)N)NC(=O)[C@H](CCC(=O)O)NC(=O)[C@H](CC(C)C)NC(=O)[C@H](CO)NC(=O)[C@@H](NC(=O)[C@@H]1CCCN1C(=O)[C@@H]1CCCN1C(C)=O)[C@@H](C)CC)C(C)C)[C@@H](C)O)C(=O)N[C@@H](C)C(=O)N[C@@H](CCCCN)C(=O)N[C@@H](CC(C)C)C(=O)N[C@@H](CCC(=O)O)C(=O)N[C@@H](CC(=O)O)C(=O)N[C@@H](C)C(=O)N[C@@H](CCCCN)C(=O)N[C@@H](CCC(=O)O)C(=O)N[C@@H](CC(C)C)C(=O)N[C@@H](CC(C)C)C(=O)N[C@@H](CCC(=O)O)C(=O)N[C@@H](CO)C(=O)N[C@@H](CO)C(=O)N[C@@H](CC(=O)O)C(=O)N[C@@H](CCC(N)=O)C(=O)N[C@H](C(=O)N[C@@H](CC(C)C)C(=O)N[C@@H](CCCNC(=N)N)C(=O)NCC(=O)N[C@@H](CO)C(=O)NCC(=O)N[C@@H](CO)C(=O)NCC(=O)N[C@@H](CSC1CC(=O)N(CCC(=O)NCCOCCOCCOCCOCCOCCOCCOCCOCCOCCOCCOCCNC(=O)CCN2C(=O)CC(SC[C@H](NC(=O)CNC(=O)[C@H](CO)NC(=O)CNC(=O)[C@H](CO)NC(=O)CNC(=O)[C@H](CCCNC(=N)N)NC(=O)[C@H](CC(C)C)NC(=O)[C@@H](NC(=O)[C@H](CCC(N)=O)NC(=O)[C@H](CC(=O)O)NC(=O)[C@H](CO)NC(=O)[C@H](CO)NC(=O)[C@H](CCC(=O)O)NC(=O)[C@H](CC(C)C)NC(=O)[C@H](CC(C)C)NC(=O)[C@H](CCC(=O)O)NC(=O)[C@H](CCCCN)NC(=O)[C@H](C)NC(=O)[C@H](CC(=O)O)NC(=O)[C@H](CCC(=O)O)NC(=O)[C@H](CC(C)C)NC(=O)[C@H](CCCCN)NC(=O)[C@H](C)NC(=O)[C@@H](NC(=O)[C@H](C)NC(=O)[C@H](CC(N)=O)NC(=O)CNC(=O)[C@H](CC(C)C)NC(=O)[C@H](CC(N)=O)NC(=O)[C@@H](NC(=O)CNC(=O)[C@@H](NC(=O)[C@H](CC(=O)O)NC(=O)[C@H](CC(C)C)NC(=O)[C@H](CCCNC(=N)N)NC(=O)[C@H](CCC(=O)O)NC(=O)[C@H](CC(C)C)NC(=O)[C@H](CO)NC(=O)[C@@H](NC(=O)[C@@H]3CCCN3C(=O)[C@@H]3CCCN3C(C)=O)[C@@H](C)CC)C(C)C)[C@@H](C)O)[C@@H](C)CC)[C@@H](C)CC)C(=O)O)C2=O)C1=O)C(=O)O)[C@@H](C)CC (stereo partly shown) [[HRC450-485]2-peg11] | > 10 |  |  | IC50 [1]: > 4 µM; IC90 [1]: > 10 µM; IC50 ([1]; read-out: Nectin4 IC50, Table 3 (extended version)): > 4 µM
FIP (no GSGSG), Monomer N-Maleimide (peptide) |  | > 1 | > 1 | 
FIP (peptide) |  | 9.72 | > 10 | 
FIP-HRC450-485 (no GSGSG) (peptide) |  | 2.77 | 6.37 | 
FIP-HRC450-485 (no GSGSG), Monomer N-Maleimide (peptide) |  | > 0.7 | > 10 | 
FIP-HRC450-485, Monomer N-Maleimide (peptide) |  | > 1 | > 1 | 
FIP-HRC450-485-chol (no GSGSG) (peptide) |  | 0.0859 | 0.54 | 
FIP-HRC450-485-peg4-chol (no GSGSG) (peptide) |  | 0.707 | 0.825 | 
FIP-chol (no GSGSG) (peptide) |  | > 1 | > 1 | 
FIP-peg4-chol (no GSGSG) (peptide) |  | > 0.7 | > 1 | 
